Laboratory results reported in patent US7427404.

Target: monoclonal anti-S1 antibody 1B7
Test: competition RIA: 1B7 coated on plate, 125I-PT displaced by unlabelled toxin

| Substance | Ka [M⁻¹] |
| --- | --- |
| PT-13L/129G (from UniProt P04978 28-226; P04979 29-227; P0A3R5 43-152; P04981 35-133) | 1.3e+08 |
| PT-26I/129G (from UniProt P04978 28-226; P04979 29-227; P0A3R5 43-152; P04981 35-133) | 5.5e+07 |
| PT-129G (from UniProt P04978 28-226; P04979 29-227; P0A3R5 43-152; P04981 35-133) | 2.1e+08 |
